Test results: a protein production outcome set (Wang et al. 2014)

Assay: label from the status in PepcDB records

With “MTNLVDKAAHSFATQNVVFQTLATASGKLVGVVTLNVEKALNALDLDMVRAMTVQLNLWKKDPLIACVVLDGSGEKAFCAGGDVRALYHASVAAKGQVTEVAKVFFEEEYRLDYLLHTYGKPVLVWGDGIVMGGGLGLMAGASHKVVTETSRIAMPEVTIGLYPDVGGSYFLNRMPGKMGLFLGLTAYHMNAADACYVGLADHYLNRDDKELMFDAMATLDWSDSPALNHQRLDTMINELSNQVDIPKGDSVLAESQEMIDRLMAGSLTDIVTRMSTLSTDEAWLSKACATMLAGSPISWHLAYIQTQLGTKLSLAQCFKWELTVSVNVCAKGDFCEGVRALLIDKDKQPKWQFADVQSVPNSVIEDILTSPWGEEHPLSQLS” as the sequence, how does the protein production read?
The protein production was “not failed”.

Which protein production does the source give for “MTNNQKLVGRHKRLAFMKVGTEGTYDRITGFTSLIEGKEAKEYARQYIDEATERTDVVGYATGIEYAFDRYTNNAVHEKIANITDDELLGVDAQVEIVSVDVFEEKAGGKYPARKRTYSVVPDTTGDGTDALIYSGNFKAVSEIVKGYCTTTDKWQTCTFVEGEIPAEALEHHHHHH” here?
The protein production was “not failed”.

For “MTNPEATDKEGKNYALFIGDTVLVGEQSPASVMTPSKKKIKNVGIFIKDDSDEEDVDDKKTAKEDQGTEILGRSKRNAVLESKLRNEINTEEKRKEHQRELAQQLNERAKDRLARQGNSKEVEKVRKNTVSYKSISQMPREPEVKELKLYVDKKYETV”, which protein production is on record?
The protein production was “failed”.

For “MTNPETASDNSRDLVLVRRFDAPCDLVFRAWTDPKALAQWCGPHGFKAVGDRLEAWPGGRHRACLIAPDGEEHWVGGKYLEVEPPHRLVFTHAWETGAGETSPETIVTITLRESDGGTEMTFRQSGFASVSSLEGHESGWSQSFERLSSFLGTGSEGLNHA”, which protein production is on record?
The protein production was “failed”.

Which protein production does the source give for “MTNQEQSGDGGRLAPRPVERPPVDPAAQRTFGRPAGVEGSFLGAGQYQDQGEYAPKDQPPDPVLAEAFGRPRGTSETLQRHPTDAGALEAERLGDEDVTDDPWRDPSAPVALGTPAQPPPPPVYVNAPTGKLGLREVLFGGRVSWIALLTLALVAVLIAFVGGWVGQKTAGTVQAFTTSKVTLETGDHPDPDAGRFEQVAAAVADSVVTIEAKSKTEGSQGSGVVVDGKGYIVTNNHVISEAATKPADFQITVVFNDGKEVPANLVGRDPKTDLAVLKVDNVDNLTVAKLGDSEKIRVGEEVIAAGAPLGLRSTVTHGIVSALHRPVPLSGDGSDTDTVIDGVQTDASINHGNSGGPLINMNAEVIGINTAGKSLSDSASGLGFAIPVNEVKEVVETLVKDGKVAHPTLLVNAVTVSNSVASGAQIKNVVENGPAGKAGMLENDVVVKVGDRKVADADEFVVAVRQLKIGQEAPIEVVRDGRPLTLMVTPIGDDQKAQ” here?
Its protein production is “failed”.

Which protein production does the source give for “MTNQRTMVVGYDGSEESNLAVQWAAKHAILRDCSLHVVHCSLWVLLSHNRGPVPGVADSGLERAAQKVLEEGMALAKETVPDLEVRTTLLHGMPRDHLAHVSVGAEMLVLGSRGLGGFMGLLVGSVSLEMAATAECPVVVIRADDHPEGPVLLAVDDAGSPAALEDACDFAAATGADLMIVHVLHEPVGYRRLREPVEAYPEAEALLDSVLSQARHKAPGIAVTGELLVDASFSKAIVKASQGARITVLGTKGHGLIKGTIGSTAHAVLHHAHSPVLVSRRRATSEVA” here?
Its protein production is “failed”.

For “MTNVLYQHGTLGTLMAGLLEGTATINELLEHGNLGIATLTGSDGEVIFLDGKAYHANEHKEFIELKGDEKVPYASITNFKASKTFPLQQLSQDDVFAQIKNEMLSENLFSAVKIYGTFKHMHVRMMPAQQPPYTRLIDSARRQPEEKRQDIRGAIVGFFTPELFHGVGSAGFHIHFADDERAYGGHVLDFEVDDVVVEIQNFETFQQHFPVNNETFVKAKIDYKDVAEEIREAE”, which protein production is on record?
The protein production was “not failed”.

With “MTNWLIAYQGEPGAYSEIAALRFGEPLPCESFDDVFSAVTEQKADYAVIPIENSLGGSIHQNYDLLLRRPVVILAETFVKVEHCLLGLPGASVETATKAMSHPQALVQCHNFFATHPQIRAEAAYDTAGSAKMVAESRDKSALAIASKRAGELYGLDILKENLADEEWNITRFFCIAHENN” as the sequence, how does the protein production read?
Its protein production is “not failed”.

For “MTPHKQLILGGEQAFVGNVASGDFKNRPCPSDLGDIPGTVNPPEGRNPSQDFGQRWDWIQLNAEHMKFSSVSEEKPGLLAPPAQPLTKMFQGAWLCWASLLLLVRVTQPCPVGCDCFDRKIFCSDEQLAAIPLDIPSHVTDIVFVETSFTTVGTRAFSGSPNLTKVVFLNTRVHHLEPDAFGGLPRLEDLEVTGSPFSNLSANIFSNLSSLGKLTLDFNRLAALPEDLFHHMDTLESLQLQGNQLQTLPGRLFQSLRYLRTLNLAQNLLTQLPKGMFQSLSSLQILKLSDNMFARLPEGVLSNLGSLQELFLDSNAITELSPHLFSHLLSLEKLWLQHNAISLLPVSAFSSLRNLTFLNLKDNALRTLPAGLFTHNPGLLHLSLSYNQLETVPEGSFANLRKLASLTLSHNAITHLPENVFRNLEQLVKLSLDSNNLTVLHPTLFHNLSKLQLLDLSRNQLTMLPGGIFDTNYDLFNLALLGNPWQCDCRLSYLTSWLRLYNDRIFNTHTFCAGPAYLKGQLVPNLKQEQLVCPGNPGQLGLDDREPAGSWDLAVEGRAAHRQCIYGNPEGTVLLACEEAQCRWLNIQLSSREGSDVTAMAYNSSQEWELRSTCGSVRVTVSIEAQAAGP”, which protein production is on record?
The protein production was “failed”.

Which protein production does the source give for “MTPMKTYDLIVIGTGPGGYHAAIRAAQLGLKVLAVEAGEVGGVCLNVGCIPTKALLHAAETLHHLKVAEGFGLKAKPELDLKKLGGWRDQVVKKLTGGVGTLLKGNGVELLRGFARLVGPKEVEVGGERYGAKSLILATGSEPLELKGFPFGEDVWDSTRALKVEEGLPKRLLVIGGGAVGLELGQVYRRLGAEVTLIEYMPEILPQGDPETAALLRRALEKEGIRVRTKTKAVGYEKKKDGLHVRLEPAEGGEGEEVVVDKVLVAVGRKPRTEGLGLEKAGVKVDERGFIRVNARMETSVPGVYAIGDAARPPLLAHKAMREGLIAAENAAGKDSAFDYQVPSVVYTSPEWAGVGLTEEEAKRAGYKVKVGKFPLAASGRALTLGGAEGMVKVVGDEETDLLLGVFIVGPQAGELIAEAALALEMGATLTDLALTVHPHPTLSESLMEAAEAFHKQAIHILNR” here?
Its protein production is “not failed”.

Which protein production does the source give for “MTPNKEDYLKCIYEIGIDLHKITNKEIAARMQVSPPAVTEMIKRMKSENLILKDKECGYLLTDLGLKLVSELYRKHRLIEVFLVHHLDYTSDQIHEEAEVLEHTVSDLFVERLDKLLGFPKTCPHGGTIPAKGELLVEINNLPLADIKEAGAYRLTRVHDSFDILHYLDKHSLHIGDQLQVKQFDGFSNTFTILSNDEDLQVNMDIAKQLYVEKIN” here?
The protein production was “not failed”.

With “MTPNYLDIAFLAVLGLFTLRGLFRGLVEEVAGLVGVIGGFWLANRHHADAAAYVGRVVEDPAWVGVLSYVVVFLGVLLVVSIVARIIRKLLVLSFAGWLDHLAGGAVGVAKGVIICSILLAVLMHFLPDASFVRDSRVIPHLAKVTSFIKGYLPQQIVN” as the sequence, how does the protein production read?
Its protein production is “failed”.

Which protein production does the source give for “MTPPEIDFFPDFIADPHRLFNHLKDSVLWDERMRARKTASFGAPYDYSQITYPAVPMPEALEQLCGPIEQLLGFRPNNCLLNCYPDGHSSMGFHSDANEQLVTGTGVVIVSLGHARAMVFRHKESGATFDYSLASGSLLHMSDELQKHWLHAIPKAPDAGERISLSFRQLKTGLEHHHHHH” here?
Its protein production is “not failed”.

With “MTPPERVRRKCPQTNTREPIIQEPDTFEPEATRRDAGATESSRANRGWWDRNADDYQVEHGTFLGDDRFVWCPEGLDEVEAELLGPAEDLKGKDVLEIGAGAAQCSRWLAGQGARPVALDLSHRQLQHALRIGGDVPLVEADAGALPFADASFDLACSAYGALPFVADPVRVLREVHRVLRPGGRFVFSVTHPIRWAFPDEPGPEGLSVSASYFDRTPYVEQDEEGGAVYVEHHRTIGDRVRDVVAGGFRLLDVVEPEWPAWNTQEWGGWSPLRGNLIPGTAIFVCVRD” as the sequence, how does the protein production read?
Its protein production is “failed”.

For “MTPSPHDLLHCGMNSQDRDETNGDRQRLVRVALGQEDGDLLVRGAQVVQPVTREVYAADVLVAGGRVAAVGPDLPARARRTVQARGAYLAPGFIDGHIHIESSLLTPASFAAAVLPHGTTAVVAEPHEIVNVLGPAGLNWMLGAGRTSGLRVYASAPSCVPASEFEQGGARVDAAQVAEMLARPGVLGLAEMMNYPGVLGGDAGVWDILNAGRRSGKRLDGHAAGLGGRELLAYAAAGLHSDHEATTPEEARERLRAGLWLMVREGSAARNLAALLPVLRDLPRRALLVSDDVSVDELLELGHLDRLLRTCVAGGLHPADAVALVTSQPAEYWGLHDLGVIAPGYHADFVLLRDLQHFGVLETFVGGEEARPGGETPPLPGGGVDLGPGWDGATFDPPAHWPTLQMFPDQIVTGRAAPGSGDARLVVADRYGRGEWSSCWTLGSGLRGGTLGISILHDAHQVALLGGSDADLRAAGRALERLGGGIVLVVDGEVREQLPLPYAGLMTDHAPAEAAAALGRVTAAARLLGCMPAGRL”, which protein production is on record?
The protein production was “failed”.
